Tests used:
[1] = target: (H3-H4)2 tetramer (recombinant Xenopus laevis histones) (X. laevis) (UniProt P84233); assay: single-molecule photobleaching steps (optical tweezers with fluorescence detection); H2A-Cy3 hexasomes ligated to 2.5-kb DNA handles
[2] = target: (H3-H4)2 tetramer (recombinant Xenopus laevis histones) (X. laevis) (UniProt P84233); assay: single-molecule photobleaching steps (optical tweezers with fluorescence detection); H2A-Cy3 nucleosomes ligated to 2.5-kb DNA handles, at low tension

stoichiometry N [1]: 1 | stoichiometry N [2]: 2
Substance: H2A-Cy3-H2B heterodimer (H2A labelled with one Cy3 at the C-terminal tail by sortase) (from UniProt P06897 1-130; P02281 1-126) (complex)

— paper PMC9388122
